Data published in the nanobody polyreactivity screen of Harvey et al. (2022).

Assay: yeast display, Sf9 membrane polyspecificity reagent, FACS + sequencing; frameworks hold sequencing errors
Outline: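 Galactose induction of a Saccharomyces cerevisiae BJ5465 synthetic nanobody display library ran 36–48 hours. The cells were then stained for 1 hour at 4 °C with 10% biotinylated, detergent-solubilized Sf9 membrane reagent, pulled down on streptavidin microbeads and FACS-sorted into low and high (top ~1%) gates on expression and reagent-binding fluorescence. Labels for polyreactivity follow the gate of origin.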

Row | Sequence | polyreactivity (PSR sort gate)
1 | QVQLVESGGGLVQAGGSLRLSCAASGRIFGVYAMGWYRQAPGKERELVAAISFSGGRTYYADSVKGRFTISRDNAKNTVYLQMNSLKPEDTAVYYCAVRGYYSFLYSTAYDYWGQGTQVTVSS | low polyreactivity
2 | QVQLVESGGGLVQAGGSLRLSCAASGRIFGVYAMGWYRQAPGKERELVAAISTRGGSTYYADSVKGRFTISRDNAKNTVYLQMNSLKPEDTAVYYCAAKSNNIATMDYWGQGTQVTVSS | low polyreactivity
3 | QVQLVESGGGLVQAGGSLRLSCAASGRIFGVYGMGWYRQAPGKERELVAAISWSGATTYYADSVKGRFTISRDNAKNTVYLQMNSLKPEDTEVYYCAADFGWFYDGLAVWFIRILGVYWGQGTQVTVSS | low polyreactivity
4 | QVQLVESGGGLVQAGGSLRLSCAASGRIFGVYVMGWYRQAPGKERELVAAISWSGSHTYYADSVKGRFTISRDNAKNTVYLQMNSLKPEDTAVYYCNADSYPDYTGPGLDWYDYWGQGTQVTVSS | low polyreactivity
5 | QVQLVESGGGLVQAGGSLRLSCAASGRIFGWYAMGWYRQAPGKERELVAAINWDGTSTDYADSVKGRFTISRDNAKNTVYLQMNSLKPEDTAVYYCAAEGHTAFLVYRVSPLQYDYWGQGTQVTVSS | low polyreactivity
6 | QVQLVESGGGLVQAGGSLRLSCAASGRIFGWYAMGWYRQAPGKERELVAAISGRGGSTFYADSVKGRFTISRDNEKNTVYLQMNSLKPEDTAVYYCNAYSWYGYDYWGQGTQVTVSS | high polyreactivity
7 | QVQLVESGGGLVQAGGSLRLSCAASGRIFGWYAMGWYRQAPGKERELVAAISNDGSTNYADSVKGRFTISRDNAKNTVYLQMNSLKPEDTAVYYCAARFYRSSYGWYGYWGQGTQVTVSS | high polyreactivity
8 | QVQLVESGGGLVQAGGSLRLSCAASGRIFGWYAMGWYRQAPGNEREFVAAITVTGGSTYYADSVKGRCTISRDNAKNTVYLQMNSLKPEDTAVYYCAADRWYTRTGFDYWGQGTQVTVSS | low polyreactivity
9 | QVQLVESGGGLVQAGGSLRLSCAASGRIFGWYAMGWYRQAPGNERELVAAINRGGSTNYADSVKGRFTISRDNAKNTVYLQMNSLKPEDTAVYYCAVRGVHYTAVTNIKYGYGYWGQGTQVTVSS | high polyreactivity
10 | QVQLVESGGGLVQAGGSLRLSCAASGRIFGYNAMGWYRQAPGKERELVAAINSDGSKNYADSVKGRFTISRDNAKNTVYLQMNSLKPEDTAVYYCNKELYPVGDYEYWGQGTQVTVSS | low polyreactivity
11 | QVQLVESGGGLVQAGGSLRLSCAASGRIFGYNAMGWYRQAPGKERELVAAISDDGSTNYADSVKGRFTISRDNAKNTVYLQMNSLKPEDTAVYYCNADITFYTWGWYYIRYEYWGQGTQVTVSS | low polyreactivity
12 | QVQLVESGGGLVQAGGSLRLSCAASGRIFGYNAMGWYRQAPGKERELVAAISGSGGSTYYADSVKGRFTISRDNAKNTVYLQMNSLKPEDTAVYYCATRHGRYPYTLDYWGQGTQVTVSS | low polyreactivity
13 | QVQLVESGGGLVQAGGSLRLSCAASGRIFGYNAMGWYRQAPGKERELVAVITYSGGSTYYADSVKGRFTISRDNAKNTVYLQMNSMIPEDTAVYYCAADYQPYSYFWQGGTRDMDYWGQGTQVTVSS | low polyreactivity
14 | QVQLVESGGGLVQAGGSLRLSCAASGRIFGYNAMVWYRQAPGKERELVAAISYSGGSTYYADSVKGRFTISRDNAKNTVYLQMNSLKPEDTAVYYCATRPGYWRYEYWGQGTQVTVSS | high polyreactivity
15 | QVQLVESGGGLVQAGGSLRLSCAASGRIFGYNTMGWYRQAPGKERELVARISYDVDSTYYADSVKGRFTISRDNAKNTVYLQMNSLKPEDTAVYYCNARRSNLGSYIEYFGFDYWGQGTQVTVSS | low polyreactivity
16 | QVQLVESGGGLVQAGGSLRLSCAASGRIFGYNVMGWYRQAPGKERELVAAISYGGGRTTYADSVKGRFTISRDNAKNTVYLQMNSLKPEDTAVYYCNAGGQHVTLDNGDYWGQGTQVTVSS | high polyreactivity
17 | QVQLVESGGGLVQAGGSLRLSCAASGRIFGYTMGWYRPAPGKERELVAAISKSGGSTYYADSVKGRFTISRDNAKNTVYLQMNSLKPEDTAVYYCNKPQRILYDYWGQGTQVTVSS | high polyreactivity
18 | QVQLVESGGGLVQAGGSLRLSCAASGRIFGYYAIGWYRQAPGKERELVAAITINGGRTYYADSVKGRFTISRDNAKNTVYLQMNSLKPEDTAVYYCTATSRYNRLGYWGQGTQVTVSS | high polyreactivity
19 | QVQLVESGGGLVQAGGSLRLSCAASGRIFGYYAMGWYRQAPGKERELVAAINSGGSTNYADSVKGRFTISRDNAKNTVYLQMNSLKPEDTAVYYCAAGWRYRYFRSRNFYPYYYWGQGTQVTVSS | high polyreactivity
20 | QVQLVESGGGLVQAGGSLRLSCAASGRIFGYYAMGWYRQAPGKERELVAAINWRGGNTNYADSVKGRFTISRDNAKNTVYLQMNSLKPEDTSVYYCNAQVLVRPIQGEYGYWGQGTQVTVSS | low polyreactivity
21 | QVQLVESGGGLVQAGGSLRLSCAASGRIFGYYAMGWYRQAPGKERELVAAIRYSSGRTYYADSVKGRFTISRDNAKNNVYLQMNSLKPEDTAVYYCNAGYLFLRSYPHDYWGQGTQVTVSS | high polyreactivity
22 | QVQLVESGGGLVQAGGSLRLSCAASGRIFGYYAMGWYRQAPGKERELVAAIRYSSGRTYYADSVKGRFTISRDNAKNTVYLQMNSLKPEDTAVYYCNAYSSTYFYNYDYWGQGTQVTVSS | high polyreactivity

Row | Sequence | polyreactivity (PSR sort gate)
23 | QVQLVESGGGLVQAGGSLRLSCAASGRIFGYYAMGWYRQAPGKERELVAAISQGGGSTYADSVKGRFTISRDNAKNTVYLQMNSLKPEDTAVYYCAKRRRTGYGYWGQGTQVTVSS | high polyreactivity
24 | QVQLVESGGGLVQAGGSLRLSCAASGRIFGYYAMGWYRQAPGKERELVAASTSSDASTYYADSVKGRFTISRDNAKNTDYLQMNSLKPEDTAVYYCNADYPTWSYYLSGYYGYWGQGTQVTVSS | low polyreactivity
25 | QVQLVESGGGLVQAGGSLRLSCAASGRIFGYYAMGWYRQAPGKERELVARITKTVGGTYYADSVKGRFTISRDNAKNTVYLQMNSLKPEDTAVYYCAARVWTGNGRSKGAYDYWGQGTQVTVSS | high polyreactivity
26 | QVQLVESGGGLVQAGGSLRLSCAASGRIFGYYAMGWYRQAPGKERELVATINSVGSTNYADSVKGRFTISRDNAKNTVYLQMNSLKPEDTAVYYCATDSAYTFFTYRLWRHGYWGQGTQVTVSS | low polyreactivity
27 | QVQLVESGGGLVQAGGSLRLSCAASGRIFGYYAMGWYRQAPGTERELVASIRRGTRTNYADSVKGRFTISRDNAKNTVYLQMNSLKPEDTAVYYCAATRFQFTTTPWYDYWGQGTQVTVSS | high polyreactivity
28 | QVQLVESGGGLVQAGGSLRLSCAASGRIFGYYTMGWYRQAPGKERELVAAINGRGTSTYYADSVKGRFTISRDNAKNTVYLQMNSLKPEDTAVYYCAAGGWGPTRAYDYWGQGTQVTVSS | high polyreactivity
29 | QVQLVESGGGLVQAGGSLRLSCAASGRIFHKYDMGWYRQAPGKERELVAAITTSGGSTYYADSVKGRFTISRDNAKNTVYLQMNSLKPEDTAVYYCADSWSRRERGFDYWGQGTQVTVSS | high polyreactivity
30 | QVQLVESGGGLVQAGGSLRLSCAASGRIFHSYTIGWYRPAPGNERELVAAINWSGTRTYYADSVKGRFTISRDNAKNTVYLQMNSLKPEDTAVYYCNRVGVTRSYRYDYWGQGTQVTVSS | high polyreactivity
31 | QVQLVESGGGLVQAGGSLRLSCAASGRIFHTYAMGWYRQAPGKEREFVAAIRWSGGSTYYADSVKGRFTISRDNAKNTVYLQMNSLKPEDTAVYYCAREQVRYYSWFGYWGQGTQVTVSS | high polyreactivity
32 | QVQLVESGGGLVQAGGSLRLSCAASGRIFHVNAMGWYRQAPGKERELVAAISTSGGRTYYADSVKGRFTISRDNAKNTVYLQMNSLKPEDTAVYYCAASLGGYGERYYYWGQGTQVTVSS | high polyreactivity
33 | QVQLVESGGGLVQAGGSLRLSCAASGRIFHYNAMGSYRQAPVKERELVAAISTGGSTNYADSVKGRFTISRDNAKNTVYLQMNSLKPEDTAVYYCAAGPDPLGEDYWGQGTQVTVSS | low polyreactivity
34 | QVQLVESGGGLVQAGGSLRLSCAASGRIFHYNAMGWYRQAPRKERELVAAISTGGSTNYADSVKGRFTISRDNAKNTVYLQMNSLKPEDTAVYYCAADHPVTYPTSKFDYWGQGTQVTVSS | low polyreactivity
35 | QVQLVESGGGLVQAGGSLRLSCAASGRIFHYNDMGWYRQAPWKERELVAAISTGGSTNYADSVKGRFTISRDNAKNTVYLQMNSLKPEDTAVYYCAADHPGTYPTTKFDYWGQGTQVTVSS | low polyreactivity
36 | QVQLVESGGGLVQAGGSLRLSCAASGRIFIAYMGWYRQAPGKERELVAAIDSGASTYYADSVKGRFTISRDNAKNTVYLQMNSLKPEDTAVYYCAADVVYDYGGMDYWGQGTQVTVSS | low polyreactivity
37 | QVQLVESGGGLVQAGGSLRLSCAASGRIFIKNAMGWYRQAPGKERELVAAISSGSSTYYADSVKGRFTISRDNAKNTVYLQMNSLKPEDTAVYLYGSWGQGTQVTVSS | low polyreactivity
38 | QVQLVESGGGLVQAGGSLRLSCAASGRIFILNTMGWYRQAPGKERELVAGISYSGSTYYADSVKGRFTISRDNAKNTVYSQMNSLKPVDTAVYYCAADYDAAWYNDGYYYWGQGTQVTVSS | low polyreactivity
39 | QVQLVESGGGLVQAGGSLRLSCAASGRIFILYAMGWYRQAPGKERELVATITKSGGNTYYADSVKGRFTISRDNAKNTVYLQMNSLKPEDTAVYYCAAQGRDSTPHGYWGQGTQVTVSS | high polyreactivity
40 | QVQLVESGGGLVQAGGSLRLSCAASGRIFINDMGWYRQAPGKERELVAAIRSDGSTNYADSVKGRFTISRDNAKNTVYLQMNSLKPEDTAVYYCNVDGYFLFVRGYEYWGQGTQVTVSS | low polyreactivity
41 | QVQLVESGGGLVQAGGSLRLSCAASGRIFINYAMGWYRQAPGKERELVAAITTNGGSTYYADSVKGRFTISRDNAKYTVYLQMNSLKPEDTAVYYCAARRRYKMDYWGQGTQVTVSS | high polyreactivity
42 | QVQLVESGGGLVQAGGSLRLSCAASGRIFIRNDMGWYRQAPGKERELVAVITRSGGRTYYADSVKGRFTISRDNAKNTVYLQMNSLKPEDTAVYYCAKRQAFKQAPYEYWGQGTQVTVSS | low polyreactivity
43 | QVQLVESGGGLVQAGGSLRLSCAASGRIFISNAMGWYRQAPGKERELVAAITWIGDRTYYADSVKGRFTISRDNAKNTVYLQMNSLKPEDTAVYYCNRVTSRVSGRYSYDYWGQGTQVTVSS | high polyreactivity
